Measurements as given in the supplement of paper PMC9170038.

System: MS2 coat protein
Test: apparent KD of MS2 coat protein; designed switch direction (-1 OFF switch, 1 ON switch): 1; higher = weaker reporter binding
Method in brief: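 Designed RNA switches were transcribed on Illumina chips by stalled E. coli RNA polymerase and titrated with SNAP-549-labelled MS2 coat protein from 0.7 or 1.5 nM, doubling to 3 µM. Step length ran from 0.8–1.5 h at the lowest concentration to 10–20 min at the highest. The apparent KD is the median over clusters for each design, from curve-fitted normalised cluster fluorescence.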

[1] = Eterna round: R95, input ligand: FMN 200 uM
[2] = Eterna round: R95, input ligand: microRNA oligo, concentration not stated
[3] = Eterna round: R95, input ligand: none
[4] = input ligand: microRNA oligo, concentration not stated

Sequence	apparent KD of MS2 coat protein [1] [nM]	apparent KD of MS2 coat protein [2] [nM]	apparent KD of MS2 coat protein [3] [nM]	apparent KD of MS2 coat protein (input ligand: FMN 200 uM) [nM]	apparent KD of MS2 coat protein [4] [nM]	apparent KD of MS2 coat protein (input ligand: none) [nM]
CGCCGACAUGAGGAUCACCCAUGUGAGCGACUCACAGGAUAUACGCGAUAACAACUUCGCGUAGAAGGGUGCUCCU [Esvezaza] (puzzle: Same State 1)	14.4	12.2	14.4			
CGCGGUAAGGAAGGAUAUGGGACGAAAACGUACCUAGAAGGUCCACAUGAGGAUCACCCAUGUACCAAGAAAGCCGCGAAAUUA [Cereraus] (Eterna round: R96, puzzle: Same State NG 1)				90.7	276	410
CGCUGUCACGCAGGAUAUGCAUUGGAUUACAAUGCAGAAGGGCGAUCACAUGAGGAUCACCCAUGUGUAGACAGUGAAGAAGAG [MOD2 JMF Solution 3] (Eterna round: R96, puzzle: Same State NG 1)				46.1	479	480
CGUAGGUAGCUGGAGGAUAUUCGAGUGGUAACAUGAGGAUCACCCAUGUGGAGUUAGGUACAUGAGGAGAAGGCUAGCUGCCUGC [JL-ss2-3.18 JL mod] (puzzle: Same State 2)	10.4	23	27.4			
CGUCCGGCCUGAGCUGGACGGUAGCAUGUACAUGAGGAUCACCCAUGUUCAUGUGCAGGCUUUUUGCUCGUCUUGUG [salish99_mir208a_modof_jandersonlee_003] (puzzle: Sensor for hsa-mir-208a)	42.3	10.6	44.9			
CGUCCGGCCUGUGCUGGCCGGAAGCUUGUACAUGAGGAUCACCCAUGUUCAUGUGCAGGCUUUUUGCUCGUCUUGUG [salish99_mir208a_009] (puzzle: Sensor for hsa-mir-208a)	26.4	30.9	32.2			
CGUCCGGCCUGUGCUGGCCGGUAGCUUGUACAUGAGGAUCACCCAUGUUCAUGUGCAGGCUUUUUGCUCGUCUUGUG [salish99_mir208a_014] (puzzle: Sensor for hsa-mir-208a)	27.9	29.6	31.5			
CGUCCGGCCUGUGCUGGCCGGUGGCGUGUACAUGAGGAUCACCCAUGUUCUUGUGCUGGCUGUUUGCUCGUCUUGUG [salish99_mir208a_r3_025] (puzzle: Sensor for hsa-mir-208a)	44.8	23	58.2			
CGUGAACAUGAGGAUCACCCAUGUGAAAAACAUAGAGGAUAUGUCACGUGAGUGUAAAAGACAGAAGGCUAUCGUG [Mod 3 of Round 1 starryjess' Mod pf Nando] (Eterna round: R96, puzzle: Same State 1)				38.1	78.3	77.6
CGUGGGUGGCUGGAGGAUAUUCGAGUGGUAACAUGAGGAUCACCCAUGUGUCGCGCGGUACAUGAGGAGAAGGCUGGCGGCCGGC (puzzle: Same State 2)	225	40.1	76.2			
CUACGAGCGCCACAGGAUAUACUGAGACUCACAUGAGGAUCACCCAUGUCCAAUUCUCCCAAAUAGUAGAAGGGUGACGCGCUCG [Maenve] (Eterna round: R96, puzzle: Same State 2)				35.5	426	562
CUACGAGCGCCACAGGAUAUACUGAGACUCACAUGAGGAUCACCCAUGUCCAAUUCUCCCAAAUAGUAGAAGGGUGACGCGCUCG [Maenve] (puzzle: Same State 2)	37.1	480	950			
CUGAGAUGUCAAGGAUAUCACGUCGAUUAGACGUGAGAAGGUGAUCUGCACAUGAGGAUCACCCAUGUGUUACAUGGAACUCAG [Brourd's SSNG1/1-A2 mod 11] (Eterna round: R96, puzzle: Same State NG 1)				197	386	431
CUGAGCAAUCGAGGAUAUCACGUCGAAUAGACGUGAGAAGGCGAUCAUAACAUGAGGAUCACCCAUGUAUUACAUGAAGCUCAG [SSNG1/4-A1] (Eterna round: R96, puzzle: Same State NG 1)				11.7	12.8	16.2
CUGAGCAAUCUAGGAUAUCACGUCGUUUAGACGUGAGAAGGAGAUCAUAACAUGAGGAUCACCCAUGUAUUACAUGAAGCUCAG [SSNG1/7-A3] (Eterna round: R96, puzzle: Same State NG 1)				13.1	15.7	18.8
CUGAGCAGUCAAGGAUAUCACGUCGAAUAGACGUGAGAAGGUGAUUAAUACAUGAGGAUCACCCAUGUAAUACAUGAAGCUCAG [SSNG1/11-A1] (Eterna round: R96, puzzle: Same State NG 1)				25.6	33.5	46.6
CUGAGCAGUCAAGGAUAUCACGUCGUUUAGACGUGAGAAGGUGAUUAAUACAUGAGGAUCACCCAUGUAAUACAUGAAGCUCAG [SSNG1/11-A3] (Eterna round: R96, puzzle: Same State NG 1)				20.9	30.9	42.5
CUGCUCGUGUGAGGAUAUGCCGCCGUUUCGGCUGCAGAAGGUGCUACGUAACAUGAGGAUCACCCAUGUCUCUGUUGUUUCGUU [salish99_SSNG1_r04_949] (Eterna round: R96, puzzle: Same State NG 1)				37.4	35.2	34
CUGCUCGUGUGAGGAUAUGCCGCCGUUUCGGCUGCAGAAGGUGCUACGUUACAUGAGGAUCACCCAUGUCUCUGUUGUUUCGUG [salish99_SSNG1_r04_944] (Eterna round: R96, puzzle: Same State NG 1)				20.7	15.8	22.8
CUGUGUUGCGGGCAGGAUAUGUAUUGGAGUACAUGAGGAUCACCCAUGUGCGGGUGUUUCACCCGACAGAAGGGCCAAUCGCGAC [JL-ss2-3.22 ViennaUCT mod] (puzzle: Same State 2)		76.7				
GAAAGCAACGGAGGAUAUUCGCGUACGUUGGACGAAGAAGGCCGACAUGAGGAUCACCCAUGUACGAAUCACGCCAUAGCAUUA [Eternabot solution 12] (Eterna round: R96, puzzle: Same State NG 1)				23.9	16.4	19.7
GAAAGCAUGGGAGGAUAUAGCCUCUAUGAAAGGCUAGAAGGCCCUGGCCACAUGAGGAUCACCCAUGUGAAAUAAAUAGAAGAA [Raarceza] (Eterna round: R96, puzzle: Same State NG 1)				28.9	96.9	218
GAAAUAUAACAUGAGGAUCACCCAUGUACAUUGGUACGGCGGAAGGAUAUGAAAGACAUGGUCAAUUAGAAGGUCCUAUCAAAA [Eternabot solution 50] (Eterna round: R96, puzzle: Same State NG 3)				102	114	139
GAAUAACAUGAGGAUCACCCAUGUAAUAUAAUGGGAGGAUAUCUGAAUUAAUUAUAUUAAGGAGAAGGCCUAUAUG [Mat - Same State 1 - Mod of Eli - D54] (puzzle: Same State 1)	51.6	204	260			
GACAAUCUAUCUGAGGAUAUCAUGAGAAGAACAUGAGGAUCACCCAUGUGCAGGAAAACUGCAUAUGAGAAGGCAGAUAGAUUGA [Mat - Same State 2 - Mod - D16] (puzzle: Same State 2)	43.7	1600	1820			
GACCGCGAGGGAGGAUAUGGAGCCUUAUUGGCUCCAGAAGGUCCAUAAGGGACAUGAGGAUCACCCAUGUGGGUUGAAGCGGUC [Fiskers NG1ss - 36] (Eterna round: R96, puzzle: Same State NG 1)					108	
GAGAAUCUAUCUCAGGAUAUCAUGUCAAAGACAUGAGGAUCACCCAUGUACCAGGAAACUGGUUAUGAGAAGGGAGAUAGAUUCA [Mat - Same State 2 - Mod - D35] (puzzle: Same State 2)	103	26.2	224			
